Test results: patent US20130156692A1 (INDI MOLECULAR, published 2013)
Bridges are numbered along the chain shown (N, C = ends). Primed or numbered codes have the meaning given here. Where no end group is shown, it is not given here. [ ]: non-standard residue; d: D form. Tz4″ = 1,4-disubstituted 1,2,3-triazole linker between anchor and secondary ligand; Lys(N3) = [N-]=[N+]=NCCCC[C@H](N)C(=O)O

B1: anchor ligand X-VEPNCDIHVMWEWECFERL-Az4 (peptide)
peptide: VEPNCDIHVMWEWECFERL[Lys(N3)]
modifications: disulfide 5-15; also: N-terminal X is biotin-PEG3 or acetyl, not settled
notes: Phage display-derived peptide; also called Biotin-PEG-anchor ligand-Az4
B2: Biligand 2 (X-…-Tz4-Ifrew) (designed binder)
peptide: VEPNCDIHVMWEWECFERL[Tz4″][dL][dF][dR][dE][dW]
modifications: disulfide 5-15; numbers in words are those of the source; also: N-terminal group is biotin-PEG3 or acetyl, not fixed

Key:
[1] = biological target: T1, human VEGF165A (#ab56620; Abcam) (human, UniProt P15692-4 27-191, biotinylated (EZ-Link Sulfo-NHS-LC-Biotinylation kit) in the competitive ELISAs of Examples 8, 9 and 16; unlabelled in the direct ELISA and the pull-down); assay: direct ELISA: VEGF165A immobilized on NUNC MaxiSorp plate, biotinylated PCC or bevacizumab (mAb or Fab) titrated, normalized to binding at saturation
T1 construct: Isoform VEGF165 of VEGF-A; also called rhVEGF165; biotinylated VEGF165
T1 sequence (P15692 other isoform, or with tags, fused parts or gaps limits assumed): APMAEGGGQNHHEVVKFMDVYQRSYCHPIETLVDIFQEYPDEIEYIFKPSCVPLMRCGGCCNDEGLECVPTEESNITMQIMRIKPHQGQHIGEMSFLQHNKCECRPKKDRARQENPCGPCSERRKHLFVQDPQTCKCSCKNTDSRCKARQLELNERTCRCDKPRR

[2] = biological target: T1, human VEGF165A (#ab56620; Abcam); assay: competitive ELISA, inhibition of biotinylated VEGF165 binding to VEGFR2-Fc; competition ELISA: blocking of biotinylated VEGF165 binding to VEGFR2-Fc; anchor tested up to 50 µM
[3] = biological target: T1, human VEGF165A (#ab56620; Abcam); assay: direct ELISA: VEGF165 coated on the plate, biotinylated binder titrated, streptavidin poly-HRP, fluorescence normalised to saturation
[4] = biological target: T1, human VEGF165A (#ab56620; Abcam); assay: direct ELISA: VEGF165A immobilized on NUNC MaxiSorp plate, biotinylated peptide titrated, normalized to binding at saturation
[5] = biological target: T1, human VEGF165A (#ab56620; Abcam); assay: competitive ELISA, inhibition of biotinylated VEGF165 binding to VEGFR2-Fc; competition ELISA: blocking of biotinylated VEGF165 binding to VEGFR2-Fc; Biligand 2 tested up to 50 µM
[6] = biological target: T1, human VEGF165A (#ab56620; Abcam); assay: direct ELISA, VEGF165 coated, biotinylated capture agent

Binder | EC50 (read off the curve) [1] [nM] | IC50 [2] [nM] | EC50 (read off the curve) [3] [nM] | EC50 (read off the curve) [4] [nM] | IC50 [5] [nM] | fold improvement in affinity relative to the anchor ligand [6] [fold]
B1 | ~100 | > 50000 | ~100 | ~300 | – | –
B2 | 40 | – | 50 | – | > 50000 | 5
